Assay results taken from US20220017608A1.

Columns and labels:
Assay in all cases: Biacore 3000, 25 °C, alanine scan: N-biotinylated peptide on SA chip, G1 Fab titrated; fold loss versus wild-type 25-37 fragment
G33A = molecular target: T1, G33A
T1 sequence (peptide, N-terminal biotin): NNFVPTNVASKAF

F37A = molecular target: T2, F37A
T2 sequence (peptide, N-terminal biotin): NNFVPTNVGSKAA

S34A = molecular target: T3, S34A
T3 sequence (peptide, N-terminal biotin): NNFVPTNVGAKAF

Fold loss in affinity (G33A): 504 fold | Fold loss in affinity (F37A): 339 fold | Fold loss in affinity (S34A): 10.9 fold
B1: Fab fragments of antibody G1 (Fab, V domains shown)
VH: EVQLVESGGGLVQPGGSLRLSCAASGFTFSNYWISWVRQAPGKGLEWVAEIRSESDASATHYAEAVKGRFTISRDNAKNSLYLQMNSLRAEDTAVYYCLAYFDYGLAIQNYWGQGTLVTVSS
VL: EIVLTQSPATLSLSPGERATLSCKASKRVTTYVSWYQQKPGQAPRLLIYGASNRYLGIPARFSGSGSGTDFTLTISSLEPEDFAVYYCSQSYNYPYTFGQGTKLEIK
